Assay results reported in the supplement of paper PMC10065799, “High-throughput profiling of sequence recognition by tyrosine kinases and SH2 domains using bacterial peptide display” (eLife, 2023).

Columns and labels:
AncSZ = assay: phosphorylation enrichment, bacterial display (enrichment ratio); higher = better substrate or ligand; peptides without Tyr show the background
EPHB1 = EPHB1 (UniProt P54762); assay: as above
EPHB2 = EPHB2 (UniProt P29323); assay: as above
FGFR1 = FGFR1 (UniProt P11362); assay: as above
FGFR3 = FGFR3 (UniProt P22607); assay: as above
Fer (mouse) = assay: as above
Fes = Fes (UniProt P07332); assay: as above
Fyn = Fyn (UniProt P06241); assay: as above
Hck = Hck (UniProt P08631); assay: as above
Jak2 = Jak2 (UniProt O60674); assay: as above
MERTK = MERTK (UniProt Q12866); assay: as above
c-Abl (mouse) = assay: as above
c-Src = assay: as above
Grb2 SH2 = Grb2 SH2 (UniProt P62993); assay: SH2 binding enrichment of the phosphorylated peptide, bacterial display (enrichment ratio); higher = better substrate or ligand; peptides without Tyr show the background
SHP2-C SH2 = assay: as above
c-Src SH2 = assay: as above
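Wherever SH2 binding enrichment of the phosphorylated peptide, bacterial display is given: peptide library displayed on the E. coli surface as eCPX fusions, selected cells deep-sequenced, score is each peptide's frequency after selection divided by its frequency in the input.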
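Wherever phosphorylation enrichment, bacterial display is given: 11-residue human phosphosite peptides and single-mutation variants displayed on the E. coli surface, counted by deep sequencing, each peptide's frequency after selection divided by its frequency in the unselected input library; frequency after pTyr selection over input frequency; kinase dosed for 20-30% of maximal phosphorylation in three min.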

Sequence of Jak2 (O60674 whole entry, looked up): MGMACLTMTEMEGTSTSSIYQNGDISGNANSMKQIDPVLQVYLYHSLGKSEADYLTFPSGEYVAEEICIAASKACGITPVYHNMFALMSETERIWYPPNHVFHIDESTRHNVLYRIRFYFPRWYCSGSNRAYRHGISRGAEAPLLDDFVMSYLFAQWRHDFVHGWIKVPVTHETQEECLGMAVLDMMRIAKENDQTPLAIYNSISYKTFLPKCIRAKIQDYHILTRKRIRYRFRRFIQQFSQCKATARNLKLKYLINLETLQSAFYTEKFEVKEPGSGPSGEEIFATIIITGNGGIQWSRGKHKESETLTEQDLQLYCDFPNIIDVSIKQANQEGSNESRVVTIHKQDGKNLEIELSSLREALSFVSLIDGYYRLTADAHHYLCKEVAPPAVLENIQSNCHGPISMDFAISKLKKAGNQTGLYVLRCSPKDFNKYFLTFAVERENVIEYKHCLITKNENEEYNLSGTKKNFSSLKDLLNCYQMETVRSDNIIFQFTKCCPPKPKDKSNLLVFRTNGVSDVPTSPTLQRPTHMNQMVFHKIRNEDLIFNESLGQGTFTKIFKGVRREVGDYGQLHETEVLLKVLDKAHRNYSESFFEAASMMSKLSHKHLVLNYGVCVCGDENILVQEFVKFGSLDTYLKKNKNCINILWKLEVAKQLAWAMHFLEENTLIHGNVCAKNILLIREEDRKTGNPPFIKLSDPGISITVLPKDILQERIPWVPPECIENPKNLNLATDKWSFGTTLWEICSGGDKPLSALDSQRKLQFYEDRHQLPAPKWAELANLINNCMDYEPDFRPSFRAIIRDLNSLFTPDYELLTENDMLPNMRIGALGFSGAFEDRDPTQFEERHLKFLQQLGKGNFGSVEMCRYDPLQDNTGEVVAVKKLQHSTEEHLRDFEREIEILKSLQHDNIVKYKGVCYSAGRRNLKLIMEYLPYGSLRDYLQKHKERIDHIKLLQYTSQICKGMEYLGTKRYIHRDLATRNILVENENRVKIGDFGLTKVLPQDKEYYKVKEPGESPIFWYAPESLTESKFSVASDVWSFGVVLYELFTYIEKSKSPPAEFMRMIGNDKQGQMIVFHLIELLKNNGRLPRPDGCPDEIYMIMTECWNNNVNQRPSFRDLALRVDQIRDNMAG
Sequence of Fes (P07332 whole entry, looked up): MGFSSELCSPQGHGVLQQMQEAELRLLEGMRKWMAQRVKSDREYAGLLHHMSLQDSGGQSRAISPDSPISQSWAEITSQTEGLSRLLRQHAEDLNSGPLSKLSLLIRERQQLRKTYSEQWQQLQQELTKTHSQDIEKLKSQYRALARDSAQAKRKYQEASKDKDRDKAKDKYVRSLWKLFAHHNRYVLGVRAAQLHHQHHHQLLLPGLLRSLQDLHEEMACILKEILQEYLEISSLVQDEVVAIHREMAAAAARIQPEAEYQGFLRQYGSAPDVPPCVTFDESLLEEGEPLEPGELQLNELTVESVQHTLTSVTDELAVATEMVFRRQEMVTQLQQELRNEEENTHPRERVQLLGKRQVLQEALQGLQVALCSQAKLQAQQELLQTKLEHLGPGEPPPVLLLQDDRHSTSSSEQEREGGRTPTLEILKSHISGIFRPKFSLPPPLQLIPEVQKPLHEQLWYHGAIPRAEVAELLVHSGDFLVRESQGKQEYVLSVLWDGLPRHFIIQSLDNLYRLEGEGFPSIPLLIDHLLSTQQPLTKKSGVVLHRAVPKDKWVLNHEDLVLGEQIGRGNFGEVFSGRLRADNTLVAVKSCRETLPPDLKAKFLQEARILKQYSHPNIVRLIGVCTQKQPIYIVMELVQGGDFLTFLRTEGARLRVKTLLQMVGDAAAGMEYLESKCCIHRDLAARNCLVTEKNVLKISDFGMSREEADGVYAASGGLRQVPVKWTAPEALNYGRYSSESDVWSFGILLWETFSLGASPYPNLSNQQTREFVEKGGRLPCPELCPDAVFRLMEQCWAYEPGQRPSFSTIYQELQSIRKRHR
Sequence of Grb2 SH2 (P62993 whole entry, looked up): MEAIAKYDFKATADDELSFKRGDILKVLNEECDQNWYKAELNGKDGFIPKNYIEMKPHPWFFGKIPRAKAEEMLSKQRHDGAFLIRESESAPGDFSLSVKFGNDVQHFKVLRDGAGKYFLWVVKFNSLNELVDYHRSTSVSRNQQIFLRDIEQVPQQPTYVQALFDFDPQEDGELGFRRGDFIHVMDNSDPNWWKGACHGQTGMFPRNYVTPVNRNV
Sequence of FGFR1 (P11362 whole entry, looked up): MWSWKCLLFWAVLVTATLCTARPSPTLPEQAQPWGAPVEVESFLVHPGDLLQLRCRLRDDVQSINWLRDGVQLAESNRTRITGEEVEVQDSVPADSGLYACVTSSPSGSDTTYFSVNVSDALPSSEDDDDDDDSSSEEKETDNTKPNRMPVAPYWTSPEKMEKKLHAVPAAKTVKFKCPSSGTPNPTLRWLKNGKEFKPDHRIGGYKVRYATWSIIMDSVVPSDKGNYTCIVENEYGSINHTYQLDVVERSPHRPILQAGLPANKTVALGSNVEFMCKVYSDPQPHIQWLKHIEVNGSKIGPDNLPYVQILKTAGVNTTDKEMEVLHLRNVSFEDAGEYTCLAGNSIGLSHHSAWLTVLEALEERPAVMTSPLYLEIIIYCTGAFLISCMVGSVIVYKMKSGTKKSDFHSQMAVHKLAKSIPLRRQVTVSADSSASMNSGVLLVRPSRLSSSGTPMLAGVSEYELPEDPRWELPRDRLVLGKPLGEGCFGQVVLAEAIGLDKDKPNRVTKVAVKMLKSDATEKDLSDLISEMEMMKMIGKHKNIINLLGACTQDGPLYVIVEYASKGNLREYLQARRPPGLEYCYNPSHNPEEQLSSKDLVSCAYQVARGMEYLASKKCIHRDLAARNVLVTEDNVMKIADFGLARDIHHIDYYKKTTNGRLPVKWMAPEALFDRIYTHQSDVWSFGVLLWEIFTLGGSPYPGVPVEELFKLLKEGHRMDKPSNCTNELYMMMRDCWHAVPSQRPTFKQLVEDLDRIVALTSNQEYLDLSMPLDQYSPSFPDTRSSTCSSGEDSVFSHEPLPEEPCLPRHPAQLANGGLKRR
Sequence of EPHB1 (P54762 whole entry, looked up): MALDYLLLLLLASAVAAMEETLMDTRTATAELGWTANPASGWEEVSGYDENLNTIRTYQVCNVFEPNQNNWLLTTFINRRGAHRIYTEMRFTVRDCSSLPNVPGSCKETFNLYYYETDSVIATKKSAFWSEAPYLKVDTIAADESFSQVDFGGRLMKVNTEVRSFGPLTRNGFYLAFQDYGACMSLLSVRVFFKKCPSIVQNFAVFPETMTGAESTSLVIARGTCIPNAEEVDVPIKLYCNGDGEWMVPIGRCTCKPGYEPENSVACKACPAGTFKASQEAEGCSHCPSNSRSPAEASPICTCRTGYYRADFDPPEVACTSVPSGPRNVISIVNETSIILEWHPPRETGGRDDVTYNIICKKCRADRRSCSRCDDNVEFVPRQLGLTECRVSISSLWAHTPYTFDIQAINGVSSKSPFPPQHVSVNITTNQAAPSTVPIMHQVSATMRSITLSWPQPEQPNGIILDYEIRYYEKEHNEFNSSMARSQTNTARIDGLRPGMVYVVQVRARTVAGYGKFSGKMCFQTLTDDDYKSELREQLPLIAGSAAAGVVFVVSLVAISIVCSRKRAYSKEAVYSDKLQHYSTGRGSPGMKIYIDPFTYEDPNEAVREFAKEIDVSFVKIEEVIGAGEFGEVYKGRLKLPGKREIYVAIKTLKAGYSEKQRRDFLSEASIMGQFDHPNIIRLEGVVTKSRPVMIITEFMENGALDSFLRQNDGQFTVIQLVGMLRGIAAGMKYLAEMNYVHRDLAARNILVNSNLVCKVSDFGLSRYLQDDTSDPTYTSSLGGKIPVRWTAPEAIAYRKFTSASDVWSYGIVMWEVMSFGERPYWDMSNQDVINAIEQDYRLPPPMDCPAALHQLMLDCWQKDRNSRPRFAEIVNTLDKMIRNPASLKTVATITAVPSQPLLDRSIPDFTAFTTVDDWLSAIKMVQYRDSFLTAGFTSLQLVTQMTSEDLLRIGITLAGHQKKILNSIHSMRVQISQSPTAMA
Sequence of Hck (P08631 whole entry, looked up): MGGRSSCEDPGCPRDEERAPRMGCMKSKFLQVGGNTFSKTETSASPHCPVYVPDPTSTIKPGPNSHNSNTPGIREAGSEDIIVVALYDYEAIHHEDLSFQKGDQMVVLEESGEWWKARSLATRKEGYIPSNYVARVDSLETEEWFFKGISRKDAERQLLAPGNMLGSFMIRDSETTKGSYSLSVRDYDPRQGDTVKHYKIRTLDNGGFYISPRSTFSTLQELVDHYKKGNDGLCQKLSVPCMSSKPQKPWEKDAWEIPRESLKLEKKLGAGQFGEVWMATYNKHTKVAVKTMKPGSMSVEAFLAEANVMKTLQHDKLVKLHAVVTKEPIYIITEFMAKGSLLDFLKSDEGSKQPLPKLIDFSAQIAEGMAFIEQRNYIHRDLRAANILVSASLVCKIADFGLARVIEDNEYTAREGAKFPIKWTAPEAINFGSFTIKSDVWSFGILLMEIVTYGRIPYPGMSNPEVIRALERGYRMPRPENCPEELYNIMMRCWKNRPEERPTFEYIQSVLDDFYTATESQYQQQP
Sequence of Fyn (P06241 whole entry, looked up): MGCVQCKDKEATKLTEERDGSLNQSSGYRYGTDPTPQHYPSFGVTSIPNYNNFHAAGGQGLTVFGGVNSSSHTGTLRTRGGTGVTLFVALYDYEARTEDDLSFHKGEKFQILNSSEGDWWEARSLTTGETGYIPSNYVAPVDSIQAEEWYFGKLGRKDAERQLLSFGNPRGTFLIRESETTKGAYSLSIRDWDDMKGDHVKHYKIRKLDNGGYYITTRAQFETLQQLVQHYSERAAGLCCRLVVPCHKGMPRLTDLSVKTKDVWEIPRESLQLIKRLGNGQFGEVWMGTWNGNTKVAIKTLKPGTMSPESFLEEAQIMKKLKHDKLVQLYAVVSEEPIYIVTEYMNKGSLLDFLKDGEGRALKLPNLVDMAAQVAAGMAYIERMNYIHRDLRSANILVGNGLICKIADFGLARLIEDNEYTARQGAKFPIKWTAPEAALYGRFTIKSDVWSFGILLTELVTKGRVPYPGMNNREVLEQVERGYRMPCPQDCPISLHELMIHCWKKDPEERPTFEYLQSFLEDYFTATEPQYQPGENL

Row | Sequence | phosphorylation enrichment (AncSZ) | phosphorylation enrichment (EPHB1) | phosphorylation enrichment (EPHB2) | phosphorylation enrichment (FGFR1) | phosphorylation enrichment (FGFR3) | phosphorylation enrichment (Fer (mouse)) | phosphorylation enrichment (Fes) | phosphorylation enrichment (Fyn) | phosphorylation enrichment (Hck) | phosphorylation enrichment (Jak2) | phosphorylation enrichment (MERTK) | phosphorylation enrichment (c-Abl (mouse)) | phosphorylation enrichment (c-Src) | SH2 binding enrichment (Grb2 SH2) | SH2 binding enrichment (SHP2-C SH2) | SH2 binding enrichment (c-Src SH2)
1 | QTPVLYAMLFH [MPZ_Y220_D224Y_YF] | 0.771 | 6.9 | 4.17 | 2.41 | 2.13 | 6.25 | 1.23 | 4.56 | 5.5 | 1.39 | 7.73 | 1.61 | 4.04 | 1.03 | 0.778 | 0.601
2 | QTPVLYTMLDH [MPZ_Y220_A221T] | 0.896 | 4.45 | 1.78 | 2.85 | 3.51 | 10.7 | 1.14 | 2.02 | 5.48 | 0.907 | 13.4 | 0.674 | 3 | 0.866 | 11.8 | 3.44
3 | QYNPEYVQQAS [LRRC7_Y1058_H1054Y] | 1.16 | 0.687 | 0.802 | 0.854 | 1.05 | 0.939 | 1.28 | 0.707 | 0.831 | 0.995 | 0.635 | 1 | 0.508 | 1.06 | 1.47 | 0.431
4 | RAHARYCADAR [ACOT4_Y52] | 0.614 | 0.444 | 0.676 | 0.406 | 0.633 | 0.333 | 1.08 | 0.392 | 0.54 | 0.533 | 0.444 | 0.689 | 0.419 | 0.92 | 0.746 | 0.656
5 | RAIELCNDKEK [OTULIN_Y244_Y244C] | 0.852 | 0.406 | 0.76 | 0.354 | 0.425 | 0.471 | 1.38 | 0.509 | 0.381 | 0.752 | 0.395 | 0.682 | 0.481 | 1 | 0.762 | 0.753
6 | RALRHYFKLNI [ETV6_Y401_YF] | 0.725 | 0.342 | 0.358 | 0.485 | 0.55 | 0.369 | 0.874 | 0.373 | 0.377 | 0.798 | 0.4 | 0.594 | 0.394 | 2.81 | 2.6 | 1.66
7 | RCKSHYAAFSV [C1QTNF1_Y145] | 1.41 | 1.43 | 0.903 | 1.1 | 0.983 | 1.46 | 1.35 | 1.4 | 1.42 | 0.737 | 2.89 | 4.74 | 1.07 | 1.45 | 1.73 | 1.34
8 | REETTYLPLTS [ICAM3_Y527_S525T] | 1.39 | 0.656 | 0.548 | 0.74 | 0.644 | 0.608 | 1.05 | 0.864 | 1.7 | 1.03 | 0.901 | 0.781 | 1.61 | 0.957 | 0.746 | 0.36
9 | RESVSYLFSHV [PRPS1_Y311_G306R] | 1 | 0.588 | 0.901 | 0.532 | 0.814 | 0.479 | 1.12 | 1.41 | 0.549 | 1.15 | 0.492 | 1.06 | 0.742 | 0.907 | 2.06 | 0.654
10 | RFQKLYLDRNL [IGFALS_Y248_L244F] | 0.726 | 0.529 | 0.509 | 0.636 | 0.655 | 0.224 | 0.761 | 0.492 | 0.569 | 0.538 | 0.342 | 0.486 | 0.332 | 0.793 | 0.771 | 0.463
11 | RHFTGCRIELQ [INSR_Y818_Y818C] | 0.779 | 0.545 | 0.778 | 0.488 | 0.672 | 0.503 | 1.49 | 0.403 | 0.613 | 0.884 | 0.421 | 0.665 | 0.508 | 0.835 | 0.771 | 0.714
12 | RHPFFYAPELL [ALB_Y174_YF] | 1.61 | 1.18 | 1.04 | 1.25 | 0.969 | 1.06 | 1.99 | 1.32 | 0.733 | 1.97 | 0.839 | 1.12 | 1.05 | 1.34 | 1.14 | 0.988
13 | RHPYFFAPELL [ALB_Y174_Y174F] | 1.22 | 0.723 | 0.613 | 16.3 | 13.9 | 0.541 | 1.33 | 0.601 | 0.598 | 1.39 | 0.557 | 1.19 | 1.29 | 1.22 | 1.01 | 0.954
14 | RICRRYCQVLN [IQCF1_Y144_R141C] | 1.03 | 0.676 | 0.624 | 0.857 | 0.66 | 0.654 | 1.18 | 0.748 | 0.7 | 0.817 | 0.758 | 0.701 | 0.738 | 0.537 | 0.76 | 0.329
15 | RIDRKYKKVRF [F8_Y442_G439D] | 1.25 | 0.761 | 0.807 | 0.72 | 0.922 | 0.934 | 1 | 0.849 | 1.05 | 2.67 | 1.19 | 1.3 | 1.32 | 1.17 | 0.665 | 0.656
16 | RISPEYKQNEI [GJB1_Y243_L239I] | 1.15 | 0.998 | 0.73 | 0.866 | 0.836 | 0.687 | 1.07 | 0.922 | 0.607 | 0.983 | 0.598 | 1.06 | 0.604 | 0.944 | 1.15 | 0.412
17 | RKMSSYAFFVQ [HMGB1_Y16_G11R] | 1.01 | 0.436 | 0.352 | 0.644 | 0.737 | 0.899 | 1.58 | 0.822 | 0.466 | 0.755 | 1.19 | 0.667 | 0.542 | 1.55 | 1.24 | 1.42

Row | Sequence | phosphorylation enrichment (AncSZ) | phosphorylation enrichment (EPHB1) | phosphorylation enrichment (EPHB2) | phosphorylation enrichment (FGFR1) | phosphorylation enrichment (FGFR3) | phosphorylation enrichment (Fer (mouse)) | phosphorylation enrichment (Fes) | phosphorylation enrichment (Fyn) | phosphorylation enrichment (Hck) | phosphorylation enrichment (Jak2) | phosphorylation enrichment (MERTK) | phosphorylation enrichment (c-Abl (mouse)) | phosphorylation enrichment (c-Src) | SH2 binding enrichment (Grb2 SH2) | SH2 binding enrichment (SHP2-C SH2) | SH2 binding enrichment (c-Src SH2)
18 | RKRQFYLFKGK [RSPO4_Y112_C107R_YF] | 1.15 | 0.741 | 0.71 | 0.555 | 0.803 | 0.787 | 0.949 | 1.14 | 1.19 | 1.06 | 1.22 | 1.25 | 0.809 | 0.295 | 0.363 | 0.296
19 | RLGVTYEQALA [MAP2_Y996_G991R] | 1.36 | 0.729 | 1.81 | 0.721 | 0.825 | 0.535 | 1 | 0.77 | 0.56 | 1.15 | 0.737 | 0.965 | 1.05 | 0.848 | 0.539 | 0.871
20 | RLLRGHDQSAF [HLA-C_Y137_Y137H_YF] | 0.79 | 0.465 | 0.389 | 0.427 | 0.47 | 0.357 | 0.738 | 0.501 | 0.566 | 0.732 | 0.421 | 0.653 | 0.573 | 0.89 | 0.718 | 0.657
21 | RLLRGYDQLAY [HLA-C_Y137_S140L] | 1.29 | 0.719 | 0.67 | 0.65 | 0.976 | 0.758 | 1.02 | 0.735 | 0.637 | 0.649 | 0.581 | 0.477 | 0.45 | 1.1 | 0.727 | 5.06
22 | RLLVFYPWTQR [HBB_Y36_V35F] | 2.05 | 0.794 | 0.938 | 0.877 | 0.891 | 0.65 | 1.47 | 0.616 | 0.557 | 1.73 | 0.512 | 1.02 | 0.509 | 2.4 | 2.1 | 1.8
23 | RLLVVYPSTQR [HBB_Y36_W38S] | 1.19 | 0.602 | 0.931 | 1.07 | 0.94 | 0.7 | 1.75 | 0.802 | 1.17 | 1.04 | 0.753 | 0.899 | 0.646 | 2.08 | 2.26 | 1.47
24 | RLLVVYPWTQK [HBG1_Y36_R41K] | 0.842 | 0.581 | 0.529 | 0.473 | 0.69 | 0.468 | 0.926 | 0.508 | 0.547 | 0.63 | 0.32 | 0.617 | 0.388 | 2.31 | 2.19 | 1.76
25 | RLLVVYTWTQR [HBB_Y36_P37T] | 1.81 | 0.656 | 1.12 | 0.661 | 0.941 | 0.842 | 2.12 | 0.739 | 0.915 | 1.08 | 0.694 | 0.862 | 0.509 | 1.68 | 1.55 | 1.01
26 | RMDGTYACSYT [FLNB_Y704] | 0.934 | 0.876 | 0.85 | 0.538 | 0.579 | 0.617 | 1.02 | 1.87 | 1.74 | 0.92 | 0.757 | 1.47 | 3.25 | 1.17 | 1.02 | 0.923
27 | RNIQQCNSFVS [PRKAR1A_Y373_Y373C] | 1.28 | 0.718 | 0.634 | 0.501 | 0.662 | 0.773 | 1.18 | 0.506 | 0.711 | 1.4 | 0.66 | 0.922 | 0.707 | 0.82 | 0.8 | 0.572
28 | RNLDTYQKRLR [PLA2G2D_Y126] | 0.617 | 0.831 | 0.279 | 0.373 | 0.484 | 0.307 | 0.61 | 0.452 | 0.55 | 0.661 | 0.474 | 0.762 | 0.463 | 0.918 | 0.504 | 0.629
29 | RPGSGYTKIMR [PKLR_Y564_N566K] | 0.546 | 0.415 | 0.303 | 0.372 | 0.368 | 0.42 | 0.525 | 0.404 | 0.409 | 0.41 | 0.48 | 0.396 | 0.348 | 0.999 | 1.69 | 2.98
30 | RQLEIYRASRP [ERCC4_Y594] | 0.663 | 0.388 | 0.254 | 0.312 | 0.389 | 0.427 | 0.673 | 0.426 | 0.316 | 0.535 | 0.391 | 0.727 | 0.408 | 0.623 | 0.49 | 0.402
31 | RQNQEYEILMD [KRT39_Y379_L383M] | 1.53 | 1.79 | 1.58 | 0.698 | 0.847 | 0.705 | 1.45 | 0.815 | 0.695 | 1.66 | 0.503 | 0.994 | 0.861 | 0.843 | 0.556 | 0.835
32 | RQNRFYDAKVR [FKBP6_Y188] | 0.687 | 0.226 | 0.432 | 0.506 | 0.496 | 0.605 | 0.715 | 0.427 | 0.606 | 0.81 | 0.672 | 0.658 | 1.18 | 1.02 | 0.675 | 0.441
33 | RQSRNYLGGFA [SYK_Y47] | 0.841 | 0.316 | 0.56 | 0.329 | 0.386 | 0.404 | 0.562 | 0.597 | 0.483 | 0.436 | 1.75 | 0.684 | 0.69 | 0.612 | 0.519 | 0.407
